According to the NTF2 design screens of Basanta et al. (2020):

Assay: protease stability score; higher = more stable; yeast display proteolysis, trypsin and chymotrypsin;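 note: log10 excess protease needed over predicted unfolded state with 0 meaning unfolded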

DEDNVKRAEHFAEALITGNPEEIQKQVDPNAKIKVGEQEVHGMESYAKEVHEENKEMHIEIRHISATAQGDRARLEMRYVINSNGRPQHVVQEYTIKLHNGRAQEIEVKDDG
protease stability score: 0.282

DEDQAKEQVDNARKVINQGNFSEAVKTADPNVKAAYGEKRLEGRQVLHTYQEVFQRRVDHVHVRRVDLKGEKATIKAELTINGRTTTMRMVVEVSNGRLKNFYVKYK
protease stability score: 0.145

DEDQAKTIEELWRTNDFDTLATQADKDVHNHVGDKKIHGRTQHTQAQERIRRAVDHFDVKRVNIQGNKVDIDVVMEVNGKNVHMTVVITVHNGKIKHMSMRVRDEEVKKLFEEMEQ
protease stability score: 0.527

DEDQAQKLIDKMTEAMFKNDEETIRKVGKEDVEVKNADEEYKGVDTIVDLARKYKEQGIEFHLEQVHKEGDQVKFTAVVHVADRTVKVEVKYKADNGHVERTEVEWSQEVKKAFQQH
protease stability score: 0.97

DEDQARLAIRFMEAWLEGNEDELKNQADPNAHFQVGDKHVTGMDEAAKELKTQLTEIRWDYKSVRIDTEEGRANLDMTVRMEVNGKPVEHSQKIEVERHNGQLSVIDQQFDNDTWDEVKS
protease stability score: -0.393

DEDQATEVAELVKSNDWENLRRNIDPNARMHIGDRTLHGREEIAEVFRRIVEQADHQRLHHLEVEGDTIVIRMTVNINGKEVDFRMKIQFHNGKIKEVRVDFTDPKERKVFDKAAR
protease stability score: 1.28

DEDQEDLIRRLIKALDTGDPEQARKNADKDARFNYGDQEIHGMQTFVDDLEKRKRQMHVRITRIDVRVHNGQAKQSVNEVTNHNGRPQSRVQDRRIQITNGRVKKMENDDDG
protease stability score: -0.316

DEDQELRSLAEDAVRAMQSNNPDDFVNLFPENARINIGDKNIHGREEIKKHAQEVNTKVDRFSVTIEHIHVHNGKAEFTVDFVMNINGRTERRRASFRIDRIGDKVRIHSADVK
protease stability score: 0.571

DEDQHRRWQELMKAIETGDPERIKELMDPNAEFVVGDKHVRGREKYAREVHRELRTMRVEFRILSLRVQGDRLLADVEVVTHDDGKPTSHRFKLEVKAENGTIRVFRNQSVP
protease stability score: 0.155

DEDQLKVALKAIRAQNNNNPDELLKLLDENVRLQYGDKTVHGREEVKEMIKHWLSHWRWKIDVRRYSVHNGVARIEALVTINVNGKPQTFTVVIHVRAENGRIKEMHYHFDEEDQEKIRS
protease stability score: 1.37

DEDQLRNIAHKLNEVWQNGDPDEMKKLLDPNVKFRYGDKTVQGMNEYVTILREMVKRIDHAHVRDFTAHNGRIDIDIQFDVNGRTVSAKVSYVVDNGKVKRAKFDPKNMKKLQS
protease stability score: 0.036

DEDQMAETLFDEIRKIWETGSEEDAKKMMDPNAHVHVGDKEVTGREEIAKRLHDEAKKADHINLTLEDVEVKGDKAQLHVRFQLHVNGKRDERRIVFVFRNHNGRLIMVTASDS
protease stability score: 1.44

DEDQMEDLKRKWEKNDWRRFARNADPNVRVEVGDRRYHGRTDALRAMKIIEDTADRIQIDRVKSTNGKVTVDLVLVVNGNKIRARFEAVVHNGQVKHFTMKFRDKDDKRRFNEAMS
protease stability score: 0.582

DEDQNRKMEHALRKNDWTRLAEQADKDVKVHIGDKVLHGREEVLKYLKRFQENVDHIEIKRMEATGNKVTVEYDVNFDGTTLDVTFKMVVQNGTVEHMTFDFRSEEQEHEAKKAYG
protease stability score: 0.627

DEDQNTVFEEVKKAIRTGDEEMLKTLMDPNVRLEYGDTEIHGREEAVRQISTRHNQLHVDEQIKDIKAHNGKVDVDFEVHRSHNGDPQHRRASARADVSNGSVKELVVKYDK
protease stability score: 0.014

DEDQQKEVEKMLQDRRTNNPERIRKMFDPNARVQVGDKTINGREDAKRYAEEERDQIRVEYKSINISVHNGRVQVDVRARFNHNGKPETRQFNLDASIHNGRIKEFQQRDDK
protease stability score: -0.163

DEDQQRKWEDWERHLRQNNEEKLVEMFDPNAKWVIGDKRWHGMEEAASKLATRVKNLHIEIRSMRVKVDGDTVEIDVLVTYTHNGQPSEKREILYIHAHNGEVKKVHFEDRE
protease stability score: 0.412

DEDQRRKLEDLLRAYRTGDEKRIVEMADPNVEMHVGDHEVHGMEKIARKQVRTNQEARVDYEDWRLDFQGDKVNFEFDLRRDHNGEPETHKVDMTIVFKNGRIKSQSVRNTK
protease stability score: -0.135

DEDQVEVMRELWRAYEDGADDQLKKLVDPNARFEVGDKHIEGREEYARDMQRQRKEIRVHYREISIENREGRLHIDYIYQRTHNGQPQTVRQVVEVDIKNGVVQRQRVQDVS
protease stability score: 0.474

DEDQVLKVIEKALKAIQQGHREEAKKLGKPNVEVQAADQRDKGPDALLKMVEQVQKVGDKFEYKETRKKGGTVTTRVEVTFGGKTVEYEVNVQAEGGKVQKWEVRIDDDFIEQVKKS
protease stability score: 0.671

DEDQVQRVREMIKAWQHNDPEKLMQQVDPNVKARVGDKTLQGREQMSKDLDRRRKEARFVIRVQEVDKRENRVQVNVKMKVNHNGHPHSFSFILNVEVHGDHIHTIHIERDK
protease stability score: 0.356

DEDQVRQANDNVIKAMKNGDPRKFKELFDPNARANYGDKEIHGMHTAMQRLVELLQQVDHIRIKDIKVENGHVHVDLVLEVNGRSVRFTITFRQSNGKVEELRMDPEDQKTLRR
protease stability score: -0.186

DEDQVRRIIQDLRRNNFEKMVELMDEDVKIDVGNYDYHGREAAHEILDRIRRQIDHIEYKSVTAQGDKIDVKAVAIINGKEWTFRVEVDADNGRIHSMKIRFRSEKEEQDYQKEVQ
protease stability score: 1.11

DEDQVRRVADKMFKMAVNGNKDEMKKLGKPNVEYKYLDKEYEGPDALKRVADKVKKIGAKVETQRREVKGDKVTAVFRYNDGDHTVQTTAEVQYEGDVVDRARVEITDEVKKVAHKG
protease stability score: -0.093

DEDRAKSFMQAVVDNDPDKILKMMDENVRIEYGNKEIHGHEDLRKFWDKLKDQVDHYQVDRYSIHNGTVNVDAQMVVNGVRVRFTIVAELRNGKVTSVKYRVTNPRQERQLDELWG
protease stability score: 1.23

DEDRARRLMEKMFKIILNGNDEEARKMGAPDVEYQYADKTFHGEEAMKYIVKVVKRVGVKVRQEKHEVHGDTATAHFQYENGDTTVETQAHVQYEGDKAKKVEVKNSDEVRKLVDQG
protease stability score: 0.228

DEDREAKKNLENMQKVLEKGDPDKMSELVDEDVRFVVGDKTFQGREDVRRRMETNVKRVDHIEVQIKHYEVKNGRARADAVFRVEVNGKETTRKFDVQVKVENGRFRVEQIRYK
protease stability score: 0.265

DEDREKEVVDILRDGNPDDAREMADENVTVRVGNKVIHGREEYHRFIKRMQDQADHRHIDSVHHRPGRVRIQFRAVVDGQKFSAQMTVKVENGRVKSAQLDATDESVKKILEHIFG
protease stability score: 1.16

DEDREKRFAKHVADVLRTGDSDRLQELADENVRMRIGDKTYKGRENFTKALEELRNRVDHIDIKSVKVHNGRISIDFVMRHNGREQTAVLIMHIHNGRIESQEVHSK
protease stability score: 0.618

DEDREQEMLEKMVQIWEEGDEEKMVRLADPNVTVRVGDKNVHGRKHLREELQKERKQVDHFYVRHITIHNGTVNLDVEYNHNGQREQATVIAKVHDGRIKELSVHSS
protease stability score: -0.204

DEDRKAREFIHDEQRAFEQNNPDDIVRLADPNVRVNIGEHDVRGHEDFKKWVDELLEKYDQINFKVTSVSVRGDHIEATVMIQNQKNGEDDTHVVLITLKDHNGRLLIEMIQER
protease stability score: 0.315

DEDRLRELVKKFVDAMRTNDEDRIREMMDKDVRVEVGDTVIKGHNEAKKWAKRLRERADHIHFDSVHVQGDRAEVDFQVRHNGKTDRNVLVLRMNNGRVQELRVHTK
protease stability score: 1.81

DEDRLREQATNFIEAMQTGDTKRVDEQIDKDAQLVVGEKKYEGREQISTFVKEMHHQFDHVRLQRVTVSGNKVLLDVVMDFNGKDLRINIVIHMNNGKISQVQVDYTNPEDAKTARG
protease stability score: 0.587

DEDRMKRLVRIFEHGDEDKLRKQADENATLKVGNHEIHGREEVQTFAQILKERVDHFHVRRVDLKGNSITALVRATVNGQSVEFKVIIVVQNGRIKKITIHATSEEQMKQLDKLFS
protease stability score: 0.959

DEDRMRELMKVMMDAVRNGNQEQAYKVMDEGGEFHVGDKTVRGPEQVKEYVKEVQDWGNHVEYKETHYEGDTATVKTQAHLGDVTVDFEVHYVVKGNKLKRFEVRFNKEQIKEFKKS
protease stability score: 0.593

DEDRMRKLLEQFLTALLQGDPEKMMELADEDVRMTYGDKEYHGREQVRDWAKDYRDKVDHASVHSYEVHGDKAQAIVVANVNGRTLSYTVVVRFQDGRAKHIKFESS
protease stability score: 2.23
